Results from patent publication US20120156130A1 (published 2012).

B1: U1-59, fully human anti-HER3 monoclonal antibody (antibody, V domains shown)
VH: QVQLQQWGAGLLKPSETLSLTCAVYGGSFSGYYWSWIRQPPGKGLEWIGEINHSGSTNYNPSLKSRVTISVETSKNQFSLKLSSVTAADTAVYYCARDKWTWYFDLWGRGTLVTVSS
VL: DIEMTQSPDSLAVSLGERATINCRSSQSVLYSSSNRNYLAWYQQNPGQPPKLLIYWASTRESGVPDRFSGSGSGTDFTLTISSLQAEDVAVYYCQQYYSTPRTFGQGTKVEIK
B2: U1-49, anti-HER3 antibody (antibody, V domains shown)
VH: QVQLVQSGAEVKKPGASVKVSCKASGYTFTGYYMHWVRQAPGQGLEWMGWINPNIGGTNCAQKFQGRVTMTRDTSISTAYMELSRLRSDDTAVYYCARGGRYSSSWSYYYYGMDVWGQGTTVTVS
VL: DILMTQTPLSLSVTPGQPASISCKSSQSLLLSDGGTYLYWYLQKPGQPPQLLIYEVSNRFSGVPDRFSGSGSGTDFTLKISRVEAEDVGVYYCMQSMQLPITFGQGTRLEIK
B3: U1-53, anti-HER3 antibody (antibody, V domains shown)
VH: EVQLVESGGGLVQPGGSLRLSCAASGFTFSIYSMNWVRQAPGKGLEWVSYISSSSSTIYYADSVKGRFTISRDNAKNSLYLQMNSLRDEDTAVYYCARDRGDFDAFDIWGQGTMVTVSS
VL: DIQMTQSPSSLSASVGDRVTITCQASQDITNYLNWYQQKPGKAPKLLIYDASNLETGVPSRFSGSGSGTDFTFTISSLQPEDIATYNCQQCENFPITFGQGTRLEIK

target: HER3 on DU-145 and PC-3 prostate cancer cells (UniProt P21860 20-1342, limits assumed); assay: cell-based or functional assay
Sequence (P21860 20-1342 limits assumed): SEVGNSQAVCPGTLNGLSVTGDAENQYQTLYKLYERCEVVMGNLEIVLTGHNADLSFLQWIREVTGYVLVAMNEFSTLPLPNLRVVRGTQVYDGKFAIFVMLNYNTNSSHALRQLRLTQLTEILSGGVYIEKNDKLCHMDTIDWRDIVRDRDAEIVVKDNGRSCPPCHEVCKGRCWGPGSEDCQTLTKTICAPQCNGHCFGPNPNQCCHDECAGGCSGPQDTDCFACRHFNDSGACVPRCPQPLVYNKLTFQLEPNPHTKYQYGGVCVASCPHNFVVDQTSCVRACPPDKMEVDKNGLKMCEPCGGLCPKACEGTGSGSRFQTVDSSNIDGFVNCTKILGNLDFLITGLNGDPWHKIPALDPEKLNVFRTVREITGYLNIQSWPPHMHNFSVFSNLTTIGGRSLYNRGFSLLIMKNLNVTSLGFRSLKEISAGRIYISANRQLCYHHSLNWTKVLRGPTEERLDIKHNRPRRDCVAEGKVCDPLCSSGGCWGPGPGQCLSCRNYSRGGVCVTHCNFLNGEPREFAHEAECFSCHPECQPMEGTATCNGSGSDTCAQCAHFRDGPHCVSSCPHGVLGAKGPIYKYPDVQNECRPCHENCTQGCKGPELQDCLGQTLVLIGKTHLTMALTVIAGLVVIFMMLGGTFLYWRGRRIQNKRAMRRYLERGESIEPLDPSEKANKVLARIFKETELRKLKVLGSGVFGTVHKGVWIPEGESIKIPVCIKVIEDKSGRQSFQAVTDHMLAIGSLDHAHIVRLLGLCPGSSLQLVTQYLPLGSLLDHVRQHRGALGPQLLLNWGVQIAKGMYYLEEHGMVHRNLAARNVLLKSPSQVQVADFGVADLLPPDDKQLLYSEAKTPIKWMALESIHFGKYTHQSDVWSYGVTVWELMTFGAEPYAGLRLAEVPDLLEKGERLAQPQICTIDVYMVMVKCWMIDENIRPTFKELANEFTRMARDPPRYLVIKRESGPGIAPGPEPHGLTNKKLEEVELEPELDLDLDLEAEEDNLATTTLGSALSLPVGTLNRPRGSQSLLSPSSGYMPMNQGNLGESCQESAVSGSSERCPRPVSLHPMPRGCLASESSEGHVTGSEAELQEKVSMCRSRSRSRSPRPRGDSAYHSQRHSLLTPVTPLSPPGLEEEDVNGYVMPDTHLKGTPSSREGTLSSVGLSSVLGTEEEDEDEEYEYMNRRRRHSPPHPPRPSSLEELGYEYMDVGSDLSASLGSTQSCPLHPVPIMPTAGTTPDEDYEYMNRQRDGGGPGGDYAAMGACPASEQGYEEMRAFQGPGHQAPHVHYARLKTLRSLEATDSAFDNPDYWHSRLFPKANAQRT

inhibition in colony formation (anchorage independent growth of PC-3 cells, soft agar) [%]	Binder
78	B1
52	B2
78	B3
